Test results as given in the supplement of paper PMC7877785.
± gives the uncertainty stated by the source.

Assay: self-splicing fitness, log relative to wild type (ln ratio); higher = more splicing; Tetrahymena group I intron in knt gene, E. coli kanamycin selection, DiMSum; sequences stand for … in CUCUCU…GGAGGGAAAAGUUAUCAGGCAUGCACCUGGUAGCUAGUCUUUAAACCAAUAGAUUGCAUCGGUUUAAAAGGCAAGACCGUCAAAUUGCGGGAAAGGGGUCAACAGCCGUUCAGUACCAAGUCUCAGGGGAAACUUUGAGAUGGCCUUGCAAAGGGUAUGGUAAUAAGCUGACGGACAUGGUCCUAACCACGCAGCCAAGUCCUAAGUCAACAGAUCUUCUGUUGAUAUGGAUGCAGUUCACAGACUAAAUGUCGGUCGGGGAAGAUGUAUUCUUCUCAUAAGAUAUAGUCGGACCUCUCCUUAAUGGGAGCUAGCGGAUGAAGUGAUGCAACACUGGAGCCGCUGGGAACUAAUUUGUAUGCGAAAGUAUAUUGAUUAGUUUUGGAGUACUCGUGGUCG
Summary of the method: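 Fitness was computed with DiMSum as the error-weighted combination of replicate fold changes, kanamycin versus none, each normalised to wild type. The library randomised all eight intron nucleotides of the P1ex region, with the intron placed in the knt kanamycin-resistance gene on pET-22b(+) in E. coli BL21(DE3). Six replicate transformations were grown overnight at 37°C or 30°C on LB agar with or without 25 μg/mL kanamycin, plus 100 μg/mL carbenicillin, 50 μM IPTG and 0.2% rhamnose. Pooled colonies were amplicon-sequenced on an Illumina HiSeq 2500.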

Sequence | self-splicing fitness (ln) (30 °C) | self-splicing fitness (ln) (37 °C)
AUAAAGCAAUAUUACGGGCU | -0.992 ± 0.08 | -0.621 ± 0.1
CGACAGCAAUAUUACGCUGA | -3.49 ± 0.28 | -2.66 ± 0.28
UUAGAGCAAUAUUACGUAGU | -1.3 ± 0.21 | -3.47 ± 0.42
GGGGAGCAAUAUUACGGGUG | -3.57 ± 0.23 | -2.9 ± 0.43
UCCUAGCAAUAUUACGCGGG | -3.2 ± 0.1 | -2.66 ± 0.14
CAUGAGCAAUAUUACGCGGG | -1.45 ± 0.14 | -2.46 ± 0.28
GGAAAGCAAUAUUACGUCAA | -1.7 ± 0.19 | -0.985 ± 0.18
CGCUAGCAAUAUUACGGAUC | -3.32 ± 0.24 | -1.14 ± 0.15
AGCAAGCAAUAUUACGUCAG | -2.89 ± 0.16 | -1.55 ± 0.18
CAGCAGCAAUAUUACGCCGA | -1.81 ± 0.12 | -0.864 ± 0.091
UUCAAGCAAUAUUACGCAAU | -2.21 ± 0.19 | -1.99 ± 0.21
UGUGAGCAAUAUUACGAAGC | -2.81 ± 0.34 | -2.08 ± 0.47
GGGAAGCAAUAUUACGCGAA | -0.913 ± 0.14 | -0.969 ± 0.2
CGCGAGCAAUAUUACGUGGG | -3.81 ± 0.29 | -2.54 ± 0.21
UCAUAGCAAUAUUACGAUGU | -2.55 ± 0.12 | -0.735 ± 0.1
CAGAAGCAAUAUUACGAGGG | -2.99 ± 0.23 | -1.18 ± 0.31
GGCCAGCAAUAUUACGUGAC | -2.05 ± 0.09 | -1.16 ± 0.11
AAGGAGCAAUAUUACGCUUC | – | -1.88 ± 0.39

Sequence | self-splicing fitness (ln) (30 °C) | self-splicing fitness (ln) (37 °C)
AAGCAGCAAUAUUACGGUUC | -2.24 ± 0.097 | -2.02 ± 0.12
GUAGAGCAAUAUUACGUUCU | -2.74 ± 0.12 | -0.917 ± 0.099
GGCGAGCAAUAUUACGAGUA | -1.9 ± 0.35 | -1.99 ± 0.22
UAGAAGCAAUAUUACGGAAC | -1.25 ± 0.34 | –
UGUAAGCAAUAUUACGCGGC | – | -1.13 ± 0.27
GAGGAGCAAUAUUACGCGUC | – | -1.75 ± 0.38
GUCAAGCAAUAUUACGGCCC | -0.498 ± 0.33 | –
UCCCAGCAAUAUUACGGCAC | -3.11 ± 0.12 | -1.88 ± 0.15
CCCGAGCAAUAUUACGCCAA | -3.35 ± 0.31 | -2.12 ± 0.26
CGGAAGCAAUAUUACGUGGU | -3.62 ± 0.21 | -1.94 ± 0.2
AUUCAGCAAUAUUACGACGA | -0.537 ± 0.1 | -0.53 ± 0.12
AUUUAGCAAUAUUACGCACA | -0.136 ± 0.093 | -0.202 ± 0.095
ACAGAGCAAUAUUACGGUAA | -3.43 ± 0.25 | -2.26 ± 0.23
ACUGAGCAAUAUUACGUGAA | -2.94 ± 0.17 | -2.09 ± 0.17
UAAUAGCAAUAUUACGCACA | -0.694 ± 0.14 | -0.0269 ± 0.15
UUUAAGCAAUAUUACGGGAG | -1.75 ± 0.089 | -1.32 ± 0.1
AAACAGCAAUAUUACGUUUA | -2.11 ± 0.1 | -0.623 ± 0.078
